The source of these data is US6824972 (BAYLOR COLLEGE OF MEDICINE, dated 2004).

The target in the experiment is T1, NF-κB relA subunit (human, UniProt Q04206 1-551).
T1 construct: also called re1A; p65
In words: EMSA with supershift (antisera to p50 and relA), nuclear extracts of TNF-stimulated normal and patient G embryonic fibroblasts, 32P-labelled MHC-1 probe. On the technique in general: In EMSA bound probe runs differently from free probe, usually more slowly.

T1 sequence (Q04206 whole entry): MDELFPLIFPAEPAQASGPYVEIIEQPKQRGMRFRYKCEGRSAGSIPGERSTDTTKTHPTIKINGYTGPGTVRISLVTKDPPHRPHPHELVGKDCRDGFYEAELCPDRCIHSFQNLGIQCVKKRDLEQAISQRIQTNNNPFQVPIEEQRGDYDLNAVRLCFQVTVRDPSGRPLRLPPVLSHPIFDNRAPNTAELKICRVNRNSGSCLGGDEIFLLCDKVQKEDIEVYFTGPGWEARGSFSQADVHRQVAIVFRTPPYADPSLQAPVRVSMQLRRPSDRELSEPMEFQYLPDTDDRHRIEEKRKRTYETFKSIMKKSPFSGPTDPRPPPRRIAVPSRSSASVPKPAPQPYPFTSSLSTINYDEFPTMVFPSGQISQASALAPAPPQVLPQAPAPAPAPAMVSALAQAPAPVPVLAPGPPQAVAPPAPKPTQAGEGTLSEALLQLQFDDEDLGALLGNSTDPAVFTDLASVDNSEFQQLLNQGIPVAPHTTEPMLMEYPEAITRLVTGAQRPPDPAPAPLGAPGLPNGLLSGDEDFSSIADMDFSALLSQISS

B1: NF-κB p50 subunit (other, human, UniProt P19838 1-433, looked up)
chain: MAEDDPYLGRPEQMFHLDPSLTHTIFNPEVFQPQMALPTDGPYLQILEQPKQRGFRFRYVCEGPSHGGLPGASSEKNKKSYPQVKICNYVGPAKVIVQLVTNGKNIHLHAHSLVGKHCEDGICTVTAGPKDMVVGFANLGILHVTKKKVFETLEARMTEACIRGYNPGLLVHPDLAYLQAEGGGDRQLGDREKELIRQAALQQTKEMDLSVVRLMFTAFLPDSTGSFTRRLEPVVSDAIYDSKAPNASNLKIVRMDRTAGCVTGGEEIYLLCDKVQKDDIQIRFYEEEENGGVWEGFGDFSPTDVHRQFAIVFKTPKYKDINITKPASVFVQLRRKSDLETSEPKPFLYYPEIKDKEEVQRKRQKLMPNFSDSFGGGSGAGAGGGGMFGSGGGGGGTGSTGPGYSFPHYGFPTYGGITFHPGTTKSNAGMKHG
As to B1, the binding result is reported as “binds”.
